Experimental findings from US20020034767 are described below.

Series [1] deals with histones.
In series [2] the target is β2-adrenergic receptor.
The target in series [3] is T1, peptide RRRASAAASAA containing a phosphoserine as the first serine.
T1 chain: RRRASAAASAA

In series [4] the target is T2, peptide RRRAEASAA
T2 chain: RRRAEASAA

In series [5] the target is G protein βγ subunits.
Series [6] deals with T3, peptide RRREEESEEE
T3 chain: RRREEESEEE

Series [7] concerns the target m2 muscarinic cholinergic receptor.
Series [8] addresses T4, peptide RRRAAAEASAAA
T4 chain: RRRAAAEASAAA

Series [9] deals with T5, rhodopsin in urea treated rod outer segments, P02699.
T5 chain: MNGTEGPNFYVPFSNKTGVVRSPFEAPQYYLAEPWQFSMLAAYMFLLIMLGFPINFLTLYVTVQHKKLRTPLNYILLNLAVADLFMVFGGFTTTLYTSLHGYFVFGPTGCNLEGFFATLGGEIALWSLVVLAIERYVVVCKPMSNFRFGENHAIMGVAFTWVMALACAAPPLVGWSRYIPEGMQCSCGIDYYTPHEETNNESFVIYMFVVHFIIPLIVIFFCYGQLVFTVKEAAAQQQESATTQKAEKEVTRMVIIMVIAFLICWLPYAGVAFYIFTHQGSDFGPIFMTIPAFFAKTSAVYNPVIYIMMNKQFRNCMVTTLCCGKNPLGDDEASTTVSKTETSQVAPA

In series [10] the target is T6, peptide RRREEESGGG
T6 chain: RRREEESGGG

In series [11] the target is polylysine, a 14-16 amino acid peptide.
The target of series [12] is casein.
The target of series [13] is phosvitin.

B1: G protein-coupled receptor kinase GRK6 (human) (protein)
chain: MELENIVANTVLLKAREGGGGNRKGKSKKWRQMLQFPHISQCEELRLSLERDYHSLCERHAIGRLLFREFCATRPELSRCVAFLDGVAEYEVTPDDKRKACGRHVTQNFLSHTGPDLIPEVPRQLVTNCTQRLEQGPCKDLFQELTRLTHEYLSVAPFADYLDSIYFNRFLQWKWLERQPVTKNTFRQYRVLGKGGFGEVCACQVRATGKMYACKKLEKKRIKKRKGEAMALNEKQILEKVNSRFVVSLAYAYETKDALCLVLTLMNGGDLKFHIYHMGQAGFPEARAVFYAAEICCGLEDLHRERIVYRDLKPENILLDDHGHIRISDLGLAVHVPEGQTIKGRVGTVGYMAPEVVKNERYTFSPDWWALGCLLYEMIAGQSPFQQRKKKIKREEVERLVKEVPEEYSERFSPQARSLCSQLLCKDPAERLGCRGGSAREVKEHPLFKKLNFKRLGAGMLEPPFKPDPQAIYCKDVLDIEQFSYVKGVELEPTDQDFYQKFATGSVPIPWQNEMVETECFQELNVFGLDGSVPPDLDWKGQPPAPPKKGLLQRLFSRQDCCGNCSDSEEELPTRL
In the case of B1, the protein substrate phosphorylation result in [1] was “it was only weakly reactive toward the basic protein substrate histones”; in [12] it was “GRK6 was able to phosphorylate the acidic proteins casein and phosvitin”; in series [13] it was “GRK6 was able to phosphorylate the acidic proteins casein and phosvitin”. Moreover, the “stimulus dependent receptor phosphorylation” value is “GRK6 is also able to phosphorylate rhodopsin, β2-adrenergic and m2 muscarinic cholinergic receptors in a stimulus dependent manner, albeit to a significantly lower extent than βARK and GRK5” in series [2]; “GRK6 is also able to phosphorylate rhodopsin, β2-adrenergic and m2 muscarinic cholinergic receptors in a stimulus dependent manner, albeit to a significantly lower extent than βARK and GRK5” in [7]. Further, the peptide phosphorylation entry is reported as “the same peptide containing a phosphoserine as the first serine is not phosphorylated by GRK6” in series [3]; “GRK6 activity was also apparent with the RRRAEASAA (SEQ ID NO: 10) peptide” in [4]; “poorly phosphorylated by GRK6” in series [6]; “but not with the RRRAAAEASAAA (SEQ ID NO: 11) peptide” in series [8]; “poorly phosphorylated by GRK6” in [10]. In series [5], the “kinase activation by G protein βγ subunits” value was “it is not activated by G protein βγ subunits”. Also, the “rhodopsin phosphorylation activity relative to βARK virus infected supernatant” value in series [9] is 4.7% +/-0.4% that of the βARK virus infected supernatant. Besides, in [11], the “fold increase in phosphorylation of rhodopsin” value is “an ˜2.7-fold increase in phosphorylation (optimal range 1 to 10 µM)”.
